Laboratory results from patent US20140056903A1 (Regeneron, published 2014).

T1: human GFRα2 expressed with a C-terminal human Fc tag and a hexahistidine tag (human, UniProt O00451 22-441, limits assumed)
T1 construct: bought protein; also called hGFRα2-hFc-6His; hGFRα2-hFc-6his
T1 sequence (looked up): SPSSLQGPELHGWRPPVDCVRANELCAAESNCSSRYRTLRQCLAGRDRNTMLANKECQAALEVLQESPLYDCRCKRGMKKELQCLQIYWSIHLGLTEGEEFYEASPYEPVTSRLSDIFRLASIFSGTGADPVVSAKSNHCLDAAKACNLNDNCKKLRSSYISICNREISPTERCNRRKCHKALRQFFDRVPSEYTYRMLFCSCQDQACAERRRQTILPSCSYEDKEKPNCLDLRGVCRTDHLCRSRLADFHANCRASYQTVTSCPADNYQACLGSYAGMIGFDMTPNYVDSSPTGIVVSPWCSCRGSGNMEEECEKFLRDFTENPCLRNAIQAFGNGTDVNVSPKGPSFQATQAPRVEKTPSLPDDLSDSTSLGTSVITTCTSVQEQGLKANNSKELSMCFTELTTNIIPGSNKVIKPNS

T2: cynomolgus GFRα3 on HEK293/MfGFRα3/MfRet/SRE-Luc cells (cynomolgus, UniProt O60609 1-400 (human entry), limits assumed)
T2 chain: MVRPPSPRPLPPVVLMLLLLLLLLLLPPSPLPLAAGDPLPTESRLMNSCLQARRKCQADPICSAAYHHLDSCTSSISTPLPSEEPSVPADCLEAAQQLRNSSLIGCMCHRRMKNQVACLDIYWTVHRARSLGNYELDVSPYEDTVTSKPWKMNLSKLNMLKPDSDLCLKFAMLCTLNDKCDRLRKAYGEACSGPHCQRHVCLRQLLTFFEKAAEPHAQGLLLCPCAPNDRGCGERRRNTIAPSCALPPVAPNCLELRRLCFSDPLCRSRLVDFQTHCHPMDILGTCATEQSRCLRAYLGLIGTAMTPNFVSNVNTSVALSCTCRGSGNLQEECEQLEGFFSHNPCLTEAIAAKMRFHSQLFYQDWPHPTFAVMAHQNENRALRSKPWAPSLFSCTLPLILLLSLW


Assays:
[1] = molecular target: T3, human GFRα3 expressed with a C-terminal myc-myc-hexahistidine tag (human, UniProt O60609 32-374, biotinylated (sites not given) in ELISA format 2 and in the Octet cross-competition; not in SPR); assay: Octet cross-competition; biotin-hGFRα3-mmH pre-saturated with first antibody H4H2236N3
T3 construct: also called hGFRα3-mmh; hGFRα3-mmH
Protocol: (§1) A cross-competition assay was conducted to assess the ability of select antibodies to compete with one another for binding to human GFRα3 using an Octet RED384 biosensor (Fortebio Inc.). The entire experiment was performed at 25° C. with the flow rate of 1000 rpm in Octet HBST buffer (0.01 M HEPES pH7.4, 0.15M NaCl, 3 mM EDTA, 0.05% v/v Surfactant P20, 0.1 mg/mL BSA). To assess whether 2 antibodies were able to compete with one another for binding to their respective epitopes on biotinylated recombinant human GFRα3 expressed with a C-terminal myc-myc-hexahistidine tag (biotin-hGFRα3-mmH; SEQ ID:370), around ˜1.2 nm of biotin-hGFRα3-mmH was first captured onto streptavidin-coated Octet sensor tips (Fortebio Inc, #18-5019) by submerging the tips for 1 minute into a 10 μg/mL solution of biotin-hGFRα3-mmH. The antigen coated sensor tips were then placed into wells containing 25 μg/mL solution of a first anti-GFRα3 monoclonal antibody for 4 minutes to saturate the biotin-hGFRα3-mmH surface. The sensor tips were then subsequently dipped into wells containing 25 μ/mL solution of a second anti-GFRα3 monoclonal antibody. The sensor tips were washed in Octet HBST buffer in between every step of the experiment. The real-time binding response was monitored during the course of the experiment and the binding response at the end of every step was recorded as shown in FIG. 9. The response of mAb-2 binding to biotin-hGFRα3-mmH pre-complexed with the first antibody was compared and competitive/non-competitive behavior of different anti-GFRα3 monoclonal antibodies was determined.

[2] = molecular target: T3, human GFRα3 expressed with a C-terminal …; assay: Octet cross-competition; biotin-hGFRα3-mmH pre-saturated with first antibody H4H2352S
Protocol: as §1

[3] = molecular target: T1, human GFRα2 expressed with a C-terminal …; assay: BLI Octet, antigen captured on anti-hFc tips
Protocol: (§2) The ability of anti-GFRα3 antibodies to bind to GDNF-family receptors was assessed using an Octet Red biosensor (Fortebio, Inc.). Antibodies were tested for binding to either human GFRα1 expressed with a C-terminal human Fc tag and a hexahistidine tag (hGFRα1-hFc-6His, R&D Systems #714-GR), human GFRα1 expressed with only a C-terminal human Fc tag (hGFRα1-hFc; SEQ ID: 376), human GFRα2 expressed with a C-terminal human Fc tag and a hexahistidine tag (hGFRα2-hFc-6His, R&D Systems #613-FR), human GFRα3 expressed with a C-terminal human Fc tag (hGFRα3-hFc, SEQ ID:371), or an irrelevant human Fc tagged protein. Antigens were captured onto anti-human Fc sensor tips from 10 ug/mL solutions for 5 minutes. The coated sensor tips were then blocked with a 100 ug/mL solution of irrelevant human Fc antibodies for 5 minutes. Blocked sensor tips were then submerged into wells containing […] of each anti-GFRα3 antibody or buffer alone for 10 minutes. The experiment was performed at 25° C. with a flow rate of 1000 rpm using HBST+BSA buffer (10 mM HEPES, 150 mM NaCl, 3 mM EDTA, 0.05% w/v Surfactant P20, 0.1 mg/mL BSA, pH 7.4). The binding response (measured in units of nm) at each step of the experiment was monitored and recorded.

[4] = molecular target: T4, human GFRα1 expressed with only a C-terminal human Fc tag (human); assay: BLI Octet, antigen captured on anti-hFc tips
T4 construct: also called hGFRα1-hFc
Protocol: as §2

[5] = molecular target: T2, cynomolgus GFRα3 on …; assay: cell-based or functional assay

Row | Binder | binding response of second antibody (nm) [1] [nm] | binding response of second antibody (nm) [2] [nm] | binding result [3] | binding result [4] | IC50 (SRE-luc, HEK293/MfGFRα3/MfRET cells, 500 pM human ARTEMIN-MMH) [5] [nM]
1 | H4H2236N3 (antibody, human IgG4, V domains shown, human IgG4 Fc (H4H)) VH: EVQLLESGGNLVQPGGSLRLSCAASGFTFSSYAMTWVRQAPGKGLEWVSTISGSGTSTYYADSVKGRFTISRDNSRDTVFLQMNSLRAEDTAVYYCSKPSALRFLHWLAMDVWGQGTLVTVSS VL: DIQMTQSPSSLSAFVGDRVTITCRASQDIRNYLDWFQQKPGKAPKSLIYAASNLQSGVPSRFGGSGSGTDFTLTINSLQPEDFVTYYCQQYNSYPPTFGGGTKVEIK | 0 | 2.15 | – | – | –
2 | H4H2291S (antibody, human IgG4, V domains shown, human IgG4 Fc (H4H)) VH: EVQLVESGGGLVQPGESLRLSCAASGFTFSNYAMSWVRQAPGKGLEWVSVISGSGGSTYYADSVKGRFTMSRDNSKNTLYLQMNSLRAEDTAVYYCAKPPSRAARYFNYGMDVWGQGTTVTVSS VL: AIRMTQSPSSVSASVGDRVTITCRASQGISSWLAWYQQKPGKAPKLLIYAASSLQSGVPSRFSGSGSGTDFTLTISSLQPEDFATYYCQQANSFPFTFGGGTKVEIK | 0.06 | 2.63 | – | – | –
3 | H4H2295S (antibody, human IgG4, V domains shown, human IgG4 Fc (H4H)) VH: EVQLVESGGGLVQAGGSLRLSCVASGFTFSSYAMSWVRQAPGKGLEWVSAISGSGGSTYSADSVKGRFTISRDNSKNTLYLQMNSLRAEDTAVYYCTKPSSYSSSNFYYGMDVWGQGTTVTVSS VL: DIQMTQSPSSVSASVGDRVTITCRASQGISSWLAWYQQKPGKAPKLLIYTASSLQSGVPSRFSGSGSRTDFTLTISSLQPEDFATYYCQQTNSLPLTFGPGTKVEIK | 0.03 | 2.31 | – | – | –
4 | H4H2296S (antibody, human IgG4, V domains shown, human IgG4 Fc (H4H)) VH: not shown VL: DIVMTQSPSSVSASVGDRVTITCRASQGISSWLAWYQQKPGKAPKLLIYAASSLRSGVPSRFSGSGSGTDFTLTITSLQPEDFATYYCQHTNSFPFTFGPGTKVEIK | 0.02 | 2.35 | – | – | –

Continued, values first:

Row | binding response of second antibody (nm) [1] [nm] | binding response of second antibody (nm) [2] [nm] | binding result [3] | binding result [4] | IC50 (SRE-luc, HEK293/MfGFRα3/MfRET cells, 500 pM human ARTEMIN-MMH) [5] [nM] | Binder
5 | 1.35 | 1.43 | – | – | – | H4H2350P (antibody, human IgG4, V domains shown, human IgG4 Fc (H4H)) VH: QVQLQESGPGLVKPSETLSLTCTVSGGSISTYYWSWFRQPPGKGLEWIGYIYYSGSTNHNPSLKSRVTISVDTSKNQFSLKLRSVTAADTAVYYCARVGPVGWGSWGNFDYWGQGTLVTVSS VL: DIQLTQSPSFLSASVGDRVTITCWASQGISSYLAWSQQKPGKAPKLLIYAASTLQSGVPSRFSGSGSGTEFTLTISSLQPEDFATYYCQQLNSYPWTFGQGTKVEIK
6 | 1.81 | 0.15 | no binding (tested: 100 ug/mL) | no binding (tested: 100 ug/mL) | 1.5 | H4H2292S (antibody, human IgG4, V domains shown, human IgG4 Fc (H4H)) VH: EVQLVESGGGVVQPGRSLRLSCAASGFTFSSYGMHWVRQAPGKGLEWVSFIWYDGSNKYYADSVKGRFTISRDNSKNTLYLQMNSLTAEDTAVYYCARRGILTGTTAFDIWGQGTMVTVSS VL: DIQMTQSPSSLSASVGDRVTITCRASQSISSYLNWYQQKPGKAPKLLIYAASSLQSGVPSRFSGSGSGTDFTLTIRSLIPEDFATYYCQQTYNTPFTFGPGTKVEIK
7 | 0 | 2.12 | – | – | – | H4H2355S (antibody, human IgG4, V domains shown, human IgG4 Fc (H4H)) VH: EVQLVESGGGLVQPGGSLRLSCAASGFTFSSYAMSWVRQVPGKGLEWVSAISGSGDNTYNAESVKGRFTISRDNSKNMLYLQMNSLRAEDTAVYYCAKTKFSSSLLFDYWGQGTLVTVSS VL: not shown
8 | 0.04 | 2.45 | – | – | – | H4H2357S (antibody, human IgG4, V domains shown, human IgG4 Fc (H4H)) VH: EVQLVESGGGLVQPGGSLRLSCAASTFTFSSYAMTWVRQAPGKGLEWVSSISGSGDSTYYADSVKGRFTISRDNSKNTLFLQMNSLRAEDTAVYYCAKKDGPGRYYVRYGMDVWGQGTTVTVSS VL: DIQMTQSPSSVSASVGDRVTITCRASQGISSWLAWYQQKPGKAPKLLIYTTSSLQSGVPSRFSGSGSGTDFTLTISSLQPEDFATYYCQQANSFPLTFGGGTKVDIK
9 | 0 | 2.25 | no binding (tested: 100 ug/mL) | no binding (tested: 100 ug/mL) | 0.7 | H4H2294S (antibody, human IgG4, V domains shown, human IgG4 Fc (H4H)) VH: EVQLVESGGGLVQPGGSLRLSCAASGFTFSSYAMSWVRQAPGKGLEWVSVISGSGGSTYYADAVKGRFTISRDNSKHTLYLQMNSLRAEDTAVYYCTKPSSYSSSNFYYGMDVWGQGSTVTVSS VL: DIQLTQSPSSVSASVGDRVTITCRASQGISSWLAWYQQKPGKAPKLLIYAASSLQSGVPSRFSGSGSGTDFTLTISSLQPEDFATYYCQQTNSFPFPFGPGTKVDIK
10 | 1.79 | 0.05 | no binding (tested: 100 ug/mL) | no binding (tested: 100 ug/mL) | 1.8 | H4H2212N (antibody, human IgG4, V domains shown, human IgG4 Fc (H4H)) VH: EVQLLESGGGLVQPGGSLRLSCAASGFTFSSYAMSWVRQGPGKGLEWVSGISGSGGSTYNADSVKGRFTISRDNSKNTLYLQMNSLRAEDTAVYYCAKDSGTYWYYFDYWGQGILVTVSS VL: not shown
11 | -0.01 | 2.08 | no binding (tested: 100 ug/mL) | no binding (tested: 100 ug/mL) | 2.5 | H4H2342P (antibody, human IgG4, V domains shown, human IgG4 Fc (H4H)) VH: EVQLLESGGGLVQPGGSLRLSCAASGFTFSTYAMSWVRQAPGKGLEWVSAIRGNGVNTYYGDSMKGRFTISRDNSKDTLYLQMNSLRAEDTAVYYCAKNKWELLVFEYWGQGTLVTVSS VL: DIQMTQSPSSLSASVGDRVTITCRASQDISNYLAWYQQKPGKVPKLLIYAASTLQSGVPFRFSGSGSGTDFTLTISSLQPEDVATYYCQKYNSAPPFGPGTKVDIK
